Data published in patent US20240117030A1 (Pfizer, published 2024).
Residue numbers refer to the chain shown, from its start.

T1: human IL-4 (human, UniProt P05112 25-153)
T1 sequence (looked up): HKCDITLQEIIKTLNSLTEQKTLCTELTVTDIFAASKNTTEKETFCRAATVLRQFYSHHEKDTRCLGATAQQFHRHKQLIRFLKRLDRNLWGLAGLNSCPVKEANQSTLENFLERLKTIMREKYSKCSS

T2: recombinant human IL-33 (R&D Systems 3625-IL), reduced with DTT (human, UniProt O95760 112-270, limits assumed)
T2 sequence (looked up): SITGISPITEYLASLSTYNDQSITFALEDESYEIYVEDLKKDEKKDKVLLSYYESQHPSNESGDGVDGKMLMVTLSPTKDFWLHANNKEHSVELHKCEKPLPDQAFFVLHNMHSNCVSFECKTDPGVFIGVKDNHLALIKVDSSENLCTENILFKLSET

B1: IL4-1347 (antibody, human IgG1, kappa, V domains shown)
VH: QVTLRESGPALVKPTQTLTLTCTFSGFSLSTSGMGVSWIRQPPGKGLEWLAHIYWDDDKRYNPSLKSRLTISKDTSRNQVVLTMTNMDPVDTATYYCARRETVFYWYFDVWGRGTPVTVSS
VL: DIQMTQSPSSLSASVGDRVTITCKASQSVDEDGDSYMNWYQQKPGKAPKLLIYAASNLESGVPSRFSGSGSGTDFTLTISSLQPEDFATYYCQQSNEDPPTFGGGTKVEIKR
B2: IL4-1356 (antibody, IgG1, V domains shown)
VH: B1 VH with S30L, S32F, M34S
VL: DIQMTQSPSSLSASVGDRVTITCKASQSVDEDGDSYMNWYQQKPGKAPKLLIYAASNLESGVPSRFSGSGSGTDFTLTISSLQPEDFATYYCQQSNEDPPTFGGGTKVEIK
B3: IL4-1352 (antibody, IgG1, V domains shown)
VH: B1 VH with T31N, S32W
VL: B2 VL
B4: IL4-1358 (antibody, IgG1, V domains shown)
VH: B1 VH with S32W, M34E
VL: B2 VL
B5: IL4-1350 (antibody, IgG1, V domains shown)
VH: B1 VH with S32W, M34S
VL: B2 VL
B6: IL4-0157 (antibody, IgG1, V domains shown)
VH: B1 VH with Q1E, T31N, S32F, M34E, V36L, N62S, P63T, S67T, R113Q, P116T
VL: B2 VL with K24R, D32E, N96H, E97K
B7: IL4-1040 (antibody, human IgG1, kappa, V domains shown)
VH: B1 VH with Q1E, T31N, S32F, M34E, V36L, R113Q, P116T
VL: B1 VL with K24R, D32E, E97K
B8: IL4-0037 (antibody, IgG1, V domains shown)
VH: B1 VH with Q1E, T31N, S32F, M34E, V36L, N62S, P63T, S67T, R113Q, P116T
VL: B2 VL
B9: IL4-0749 (antibody, human IgG1, kappa, V domains shown)
VH: B1 VH with Q1E, T31N, S32F, M34E, V36L, R113Q, P116T
VL: B1 VL with K24R, D32E
B10: IL4-0002 (antibody, human IgG1, kappa)
heavy: EVTLRESGPALVKPTQTLTLTCTFSGFSLSNFGEGLSWIRQPPGKGLEWLAHIYWDDDKRYNPSLKSRLTISKDTSRNQVVLTMTNMDPVDTATYYCARRETVFYWYFDVWGQGTTVTVSSASTKGPSVFPLAPSSKSTSGGTAALGCLVKDYFPEPVTVSWNSGALTSGVHTFPAVLQSSGLYSLSSVVTVPSSSLGTQTYICNVNHKPSNTKVDKKVEPKSCDKTHTCPPCPAPEAAGAPSVFLFPPKPKDTLMISRTPEVTCVVVDVSHEDPEVKFNWYVDGVEVHNAKTKPREEQYNSTYRVVSVLTVLHQDWLNGKEYKCKVSNKALPAPIEKTISKAKGQPREPQVYTLPPSREEMTKNQVSLTCLVKGFYPSDIAVEWESNGQPENNYKTTPPVLDSDGSFFLYSKLTVDKSRWQQGNVFSCSVMHEALHNHYTQKSLSLSPGK
light: DIQMTQSPSSLSASVGDRVTITCKASQSVDEDGDSYMNWYQQKPGKAPKLLIYAASNLESGVPSRFSGSGSGTDFTLTISSLQPEDFATYYCQQSNEDPPTFGGGTKVEIKRTVAAPSVFIFPPSDEQLKSGTASVVCLLNNFYPREAKVQWKVDNALQSGNSQESVTEQDSKDSTYSLSSTLTLSKADYEKHKVYACEVTHQGLSSPVTKSFNRGEC
B11: IL13-1308 (antibody, IgG1, V domains shown)
VH: EVQLVESGGGLVQPGGSLRLSCAASGFTFSSYAMSWVRQAPGKGLEWVASISSGDTTYYPDSVKGRFTISRDNAKNSLYLQMNSLRAEDTAVYYCARLDGYYFGFPYWGQGTLVTVSS
VL: B1 VL with Q27E, E31H, D32F, D34W, Y36L, M37V, N38H, A54R, P100W
B12: IL13-1338 (antibody, IgG1, V domains shown)
VH: B11 VH with L98N, D99E, F105L, P106T, Y107L
VL: B2 VL with Q27E, E31H, D32S, D34S, Y36L, N38H, A54R, P100W
B13: IL33-0698 (antibody, IgG1, V domains shown)
VH: EVQLVESGGGLVQPGGSLRLSCAASGFTFSSYWMYWVRQAPGKGLEWVAAITPNAHAGYYPESVKGRFTISRDNAKNSLYLQMNSLRAEDTAVYYCARGHYYYTSYSLGYWGQGTLVTVSS
VL: DIQMTQSPSSLSASVGDRVTITCRASQPISKHLDWYQQKPGKAPKLLIYFTNNLQTGVPSRFSGSGSGTDFTLTISSLQPEDFATYYCFQYKQGWTFGGGTKVEIK
B14: IL33-0711 (antibody, IgG1, V domains shown)
VH: B13 VH
VL: B13 VL with N52K, Q55K, K92N
B15: IL33-0715 (antibody, IgG1, V domains shown)
VH: B13 VH with A55K, H56G, A57V, G58D
VL: B13 VL with N52K, T56S, K92N
B16: IL33-0713 (antibody, IgG1, V domains shown)
VH: B13 VH with A55K, H56G, A57V, G58D
VL: B13 VL with N52K, Q55V, K92N
B17: IL33-0710 (antibody, IgG1, V domains shown)
VH: B13 VH
VL: B13 VL with N52K, Q55V, K92N
B18: IL33-0701 (antibody, IgG1, V domains shown)
VH: B13 VH with A55K, H56G, A57V, G58D
VL: B13 VL
B19: IL33-0712 (antibody, IgG1, V domains shown)
VH: B13 VH
VL: B13 VL with N52K, T56S, K92N
B20: IL33-0714 (antibody, IgG1, V domains shown)
VH: B13 VH with A55K, H56G, A57V, G58D
VL: B13 VL with N52K, Q55K, K92N

Target: T1, human IL-4
Experiment: cell-based or functional assay

Compared with B1, B2 is higher in “CD23: Fold bioactivity relative to IL4-1285” value: 1.5 fold for the first, 2.1 fold for the second.

First: B3
Second: B4
The “CD23: Fold bioactivity relative to IL4-1285” value of the first is lower: 4.9 fold for the first, 5.7 fold for the second.

With B5 the “CD23: Fold bioactivity relative to IL4-1285” value was 5.4 fold.

Going from B1 to B2, the “CD23 IC50 [pM]” value falls from 65.2 pM to 44.9 pM.

Compared with B3, B4 is lower in “CD23 IC50 [pM]” value: 19.6 pM for the first, 16.8 pM for the second.

With B5 the “CD23 IC50 [pM]” value was 17.9 pM.

Target: T1, human IL-4
Experiment: cell-based or functional assay
Remark: another data set of the same source

Going from B6 to B7, the “CD23: Fold bioactivity relative to IL4-0002” value rises from 0.2 fold to 0.7 fold.

First: B8
Second: B9
The “CD23: Fold bioactivity relative to IL4-0002” value of the first is higher: 1.3 fold for the first, 0.9 fold for the second.

For B10, the “CD23: Fold bioactivity relative to IL4-0002” value was 1 fold.

Going from B6 to B7, the “CD23 IC50 [pM]” value falls from 9.3 pM to 3.2 pM.

Compared with B8, B9 is higher in “CD23 IC50 [pM]” value: 1.6 pM for the first, 2.4 pM for the second.

In the case of B10, the “CD23 IC50 [pM]” value is reported as 2.1 pM.

Target: human IL-13 (human, UniProt P35225 35-146)
Sequence (P35225 35-146 limits assumed, form in doubt): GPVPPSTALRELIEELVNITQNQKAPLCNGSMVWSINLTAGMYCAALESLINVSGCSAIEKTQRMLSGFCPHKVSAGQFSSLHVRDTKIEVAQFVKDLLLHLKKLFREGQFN
Experiment: cell-based or functional assay

First: B11
Second: B12
The “CD23: Fold bioactivity relative to IL13-0001” value of the first is lower: 0.7 fold for the first, 0.9 fold for the second.

Going from B11 to B12, the “CD23: Fold bioactivity relative to IL13-1307” value rises from 21.3 fold to 26.5 fold.

Compared with B11, B12 is lower in “CD23 IC50 [pM]” value: 14.4 pM for the first, 11.5 pM for the second.

Compared with B11, B12 is lower in “pSTAT6: Fold bioactivity relative to IL13-0001” value: 2.2 fold for the first, 1.1 fold for the second.

First: B11
Second: B12
The “pSTAT6: Fold bioactivity relative to IL13-1307” value of the first is higher: 3.3 fold for the first, 1.6 fold for the second.

Going from B11 to B12, the “pSTAT6 IC50 [pM]” value rises from 42.7 pM to 87 pM.

Target: T2, recombinant human IL-33 (R&D Systems …)
Experiment: cell-based or functional assay

First: B13
Second: B14
The “IC50 [nM] versus reduced human IL-33 (R&D), IC50 (AVE)” value of the first is 2-fold higher: 0.014 nM for the first, 0.007 nM for the second.

B15 and B16 are the same in “IC50 [nM] versus reduced human IL-33 (R&D), IC50 (AVE)” value: 0.012 nM for the first, 0.012 nM for the second.

B17 and B18 are the same in “IC50 [nM] versus reduced human IL-33 (R&D), IC50 (AVE)” value: 0.013 nM for the first, 0.013 nM for the second.

B19 and B20 are within 1.5-fold of each other in “IC50 [nM] versus reduced human IL-33 (R&D), IC50 (AVE)” value: 0.01 nM for the first, 0.009 nM for the second.
